Experimental data: paper PMC9688426, “Comparison of Optical and Electrical Sensor Characteristics for Efficient Analysis of Attachment and Detachment of Aptamer”

Biological target: thrombin (bovine, UniProt P00735;P00735 318-366;367-625)
Test: graphene oxide FET resistance change; TBA adsorbed on graphene oxide; thrombin detected down to 250 pM within 5 min (detection limit, not Kd); Assay buffer and temperature not given in the material (reagents list PBS pH 7.4 and Trizma base); sections 3.2.1-3.2.3 have no text. GOx, trypsin, lysozyme, ficin and goat anti-mouse IgG were purchased, but no result for them is in the material
Details: protein: commercial; copies: 1;1

GGTTGGTGTGGTTGG (ssDNA) [TBA]
binding result: binds
